# Laboratory results as given in PMC8748919, “Dynamics and mechanism of dimer dissociation of photoreceptor UVR8” (Nature Communications, 2022).
# Changes are numbered by the printed parent chain. In names and notes the source's numbering stands.
# B1: UVR8 W144 single-Trp mutant (receptor, Arabidopsis thaliana, UniProt Q9FN03 1-440, looked up)
# chain: MAEDMAADEVTAPPRKVLIISAGASHSVALLSGDIVCSWGRGEDGQLGHGDAEDRPSPTQLSALDGHQIVSVTCGADHTVAYSQSGMEVYSWGWGDFGRLGHGNSSDLFTPLPIKALHGIRIKQIACGDSHCLAVTMEGEVQSFGRNQNGQLGLGDTEDSLVPQKIQAFEGIRIKMVAAGAEHTAAVTEDGDLYGWGWGRYGNLGLGDRTDRLVPERVTSTGGEKMSMVACGWRHTISVSYSGALYTYGWSKYGQLGHGDLEDHLIPHKLEALSNSFISQISGGWRHTMALTSDGKLYGWGWNKFGQVGVGNNLDQCSPVQVRFPDDQKVVQVSCGWRHTLAVTERNNVFAWGRGTNGQLGIGESVDRNFPKIIEALSVDGASGQHIESSNIDPSSGKSWVSPAERYAVVPDETGLTDGSSKGNGGDISVPQTDVKRVRI
# notes: UVR8, Arabidopsis thaliana; mutant plasmid built on the wild-type plasmid; also called W144F; source: E. coli BL21-DE3, purified (Ni-Sepharose, Source-15Q)
# B2: UVR8 W196 single-Trp mutant (receptor, Arabidopsis thaliana, UniProt Q9FN03 1-440, looked up)
# chain: B1 chain with F144W, W196F
# notes: UVR8, Arabidopsis thaliana; mutant plasmid built on the wild-type plasmid; also called W196F; source: E. coli BL21-DE3, purified (Ni-Sepharose, Source-15Q)
# B3: UVR8 W300 single-Trp mutant (receptor, Arabidopsis thaliana, UniProt Q9FN03 1-440, looked up)
# chain: B1 chain with F144W, W300F
# notes: UVR8, Arabidopsis thaliana; mutant plasmid built on the wild-type plasmid; also called W300F; source: E. coli BL21-DE3, purified (Ni-Sepharose, Source-15Q)
# B4: UVR8 W198 single-Trp mutant (receptor, Arabidopsis thaliana, UniProt Q9FN03 1-440, looked up)
# chain: B1 chain with F144W, W198F
# notes: UVR8, Arabidopsis thaliana; mutant plasmid built on the wild-type plasmid; also called W198F; source: E. coli BL21-DE3, purified (Ni-Sepharose, Source-15Q)
# B5: UVR8 W337F (receptor, Arabidopsis thaliana, UniProt Q9FN03 1-440, looked up)
# chain: B1 chain with F144W, W337F
# notes: UVR8, Arabidopsis thaliana; mutant plasmid built on the wild-type plasmid; source: E. coli BL21-DE3, purified (Ni-Sepharose, Source-15Q)
# B6: UVR8 W94F (receptor, Arabidopsis thaliana, UniProt Q9FN03 1-440, looked up)
# chain: B1 chain with W94F, F144W
# notes: as for B5
# Molecular target: the molecule itself
# Experiment: SEC; dimer/monomer state of the purified protein before UV irradiation; 150 mM NaCl, 25 mM Tris-HCl, pH 8.0
row,Protein,binding result
1,B1,binds
2,B2,binds
3,B3,binds
4,B4,binds
5,B5,binds
6,B6,binds
